The target in the series is T1, SlyA (Shigella flexneri serotype 2a 2457T) (UniProt P0A8W4).
T1 sequence: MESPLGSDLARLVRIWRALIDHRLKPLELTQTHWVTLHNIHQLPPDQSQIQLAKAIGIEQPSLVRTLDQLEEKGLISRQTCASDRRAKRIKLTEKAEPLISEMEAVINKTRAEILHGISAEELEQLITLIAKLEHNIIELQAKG
Put plainly: EMSA. To be noted: 10 mM Tris-HCl pH 7.5, 100 mM KCl, 1 mM EDTA, 0.1 mM DTT, 5% glycerol, 10 ug/mL BSA, room temperature 30 min. In general terms: A gel shift assay detects complexes by their altered migration in electrophoresis.

Take “CAGTCTGAACGGGGTGTACACGCCGTATATGCAGGATAAACAATAATTAATTTGATCGCCCGAACAGGAATGTTTGGGCGATTTTTATTACGATAATAAAGTCTGTTTTTAATATTATCATGTTAAATGTTTATATTATAAAAAGTCGTTTTTCTGCTTAGGATTTTGTTATTTAAATTAAGCCTGTAATGCCTTGCTTCCATTGCGGATAAATCCTACTTTTTTATTGCCTTCAAATAAATTTAAGGAGTTCGAAATGGACCAGAAGCTGTTAACGGATTTCCGCTCAG (double strand) [PgadA]”: the binding entry is recorded as “binds”.

Values taken from PMC6128205.
